# B1: Myosin-7 (Homo sapiens), P12883 (parent)
# chain: MGDSEMAVFGAAAPYLRKSEKERLEAQTRPFDLKKDVFVPDDKQEFVKAKIVSREGGKVTAETEYGKTVTVKEDQVMQQNPPKFDKIEDMAMLTFLHEPAVLYNLKDRYGSWMIYTYSGLFCVTVNPYKWLPVYTPEVVAAYRGKKRSEAPPHIFSISDNAYQYMLTDRENQSILITGESGAGKTVNTKRVIQYFAVIAAIGDRSKKDQSPGKGTLEDQIIQANPALEAFGNAKTVRNDNSSRFGKFIRIHFGATGKLASADIETYLLEKSRVIFQLKAERDYHIFYQILSNKKPELLDMLLITNNPYDYAFISQGETTVASIDDAEELMATDNAFDVLGFTSEEKNSMYKLTGAIMHFGNMKFKLKQREEQAEPDGTEEADKSAYLMGLNSADLLKGLCHPRVKVGNEYVTKGQNVQQVIYATGALAKAVYERMFNWMVTRINATLETKQPRQYFIGVLDIAGFEIFDFNSFEQLCINFTNEKLQQFFNHHMFVLEQEEYKKEGIEWTFIDFGMDLQACIDLIEKPMGIMSILEEECMFPKATDMTFKAKLFDNHLGKSANFQKPRNIKGKPEAHFSLIHYAGIVDYNIIGWLQKNKDPLNETVVGLYQKSSLKLLSTLFANYAGADAPIEKGKGKAKKGSSFQTVSALHRENLNKLMTNLRSTHPHFVRCIIPNETKSPGVMDNPLVMHQLRCNGVLEGIRICRKGFPNRILYGDFRQRYRILNPAAIPEGQFIDSRKGAEKLLSSLDIDHNQYKFGHTKVFFKAGLLGLLEEMRDERLSRIITRIQAQSRGVLARMEYKKLLERRDSLLVIQWNIRAFMGVKNWPWMKLYFKIKPLLKSAEREKEMASMKEEFTRLKEALEKSEARRKELEEKMVSLLQEKNDLQLQVQAEQDNLADAEERCDQLIKNKIQLEAKVKEMNERLEDEEEMNAELTAKKRKLEDECSELKRDIDDLELTLAKVEKEKHATENKVKNLTEEMAGLDEIIAKLTKEKKALQEAHQQALDDLQAEEDKVNTLTKAKVKLEQQVDDLEGSLEQEKKVRMDLERAKRKLEGDLKLTQESIMDLENDKQQLDERLKKKDFELNALNARIEDEQALGSQLQKKLKELQARIEELEEELEAERTARAKVEKLRSDLSRELEEISERLEEAGGATSVQIEMNKKREAEFQKMRRDLEEATLQHEATAAALRKKHADSVAELGEQIDNLQRVKQKLEKEKSEFKLELDDVTSNMEQIIKAKANLEKMCRTLEDQMNEHRSKAEETQRSVNDLTSQRAKLQTENGELSRQLDEKEALISQLTRGKLTYTQQLEDLKRQLEEEVKAKNALAHALQSARHDCDLLREQYEEETEAKAELQRVLSKANSEVAQWRTKYETDAIQRTEELEEAKKKLAQRLQEAEEAVEAVNAKCSSLEKTKHRLQNEIEDLMVDVERSNAAAAALDKKQRNFDKILAEWKQKYEESQSELESSQKEARSLSTELFKLKNAYEESLEHLETFKRENKNLQEEISDLTEQLGSSGKTIHELEKVRKQLEAEKMELQSALEEAEASLEHEEGKILRAQLEFNQIKAEIERKLAEKDEEMEQAKRNHLRVVDSLQTSLDAETRSRNEALRVKKKMEGDLNEMEIQLSHANRMAAEAQKQVKSLQSLLKDTQIQLDDAVRANDDLKENIAIVERRNNLLQAELEELRAVVEQTERSRKLAEQELIETSERVQLLHSQNTSLINQKKKMDADLSQLQTEVEEAVQECRNAEEKAKKAITDAAMMAEELKKEQDTSAHLERMKKNMEQTIKDLQHRLDEAEQIALKGGKKQLQKLEARVRELENELEAEQKRNAESVKGMRKSERRIKELTYQTEEDRKNLLRLQDLVDKLQLKVKAYKRQAEEAEEQANTNLSKFRKVQHELDEAEERADIAESQVNKLRAKSRDIGTKGLNEE
# Variants of: B1
# Details: with mypc3_human MYBPC3, Q14896
# Sequence of mypc3_human MYBPC3, Q14896 (Q14896 whole entry): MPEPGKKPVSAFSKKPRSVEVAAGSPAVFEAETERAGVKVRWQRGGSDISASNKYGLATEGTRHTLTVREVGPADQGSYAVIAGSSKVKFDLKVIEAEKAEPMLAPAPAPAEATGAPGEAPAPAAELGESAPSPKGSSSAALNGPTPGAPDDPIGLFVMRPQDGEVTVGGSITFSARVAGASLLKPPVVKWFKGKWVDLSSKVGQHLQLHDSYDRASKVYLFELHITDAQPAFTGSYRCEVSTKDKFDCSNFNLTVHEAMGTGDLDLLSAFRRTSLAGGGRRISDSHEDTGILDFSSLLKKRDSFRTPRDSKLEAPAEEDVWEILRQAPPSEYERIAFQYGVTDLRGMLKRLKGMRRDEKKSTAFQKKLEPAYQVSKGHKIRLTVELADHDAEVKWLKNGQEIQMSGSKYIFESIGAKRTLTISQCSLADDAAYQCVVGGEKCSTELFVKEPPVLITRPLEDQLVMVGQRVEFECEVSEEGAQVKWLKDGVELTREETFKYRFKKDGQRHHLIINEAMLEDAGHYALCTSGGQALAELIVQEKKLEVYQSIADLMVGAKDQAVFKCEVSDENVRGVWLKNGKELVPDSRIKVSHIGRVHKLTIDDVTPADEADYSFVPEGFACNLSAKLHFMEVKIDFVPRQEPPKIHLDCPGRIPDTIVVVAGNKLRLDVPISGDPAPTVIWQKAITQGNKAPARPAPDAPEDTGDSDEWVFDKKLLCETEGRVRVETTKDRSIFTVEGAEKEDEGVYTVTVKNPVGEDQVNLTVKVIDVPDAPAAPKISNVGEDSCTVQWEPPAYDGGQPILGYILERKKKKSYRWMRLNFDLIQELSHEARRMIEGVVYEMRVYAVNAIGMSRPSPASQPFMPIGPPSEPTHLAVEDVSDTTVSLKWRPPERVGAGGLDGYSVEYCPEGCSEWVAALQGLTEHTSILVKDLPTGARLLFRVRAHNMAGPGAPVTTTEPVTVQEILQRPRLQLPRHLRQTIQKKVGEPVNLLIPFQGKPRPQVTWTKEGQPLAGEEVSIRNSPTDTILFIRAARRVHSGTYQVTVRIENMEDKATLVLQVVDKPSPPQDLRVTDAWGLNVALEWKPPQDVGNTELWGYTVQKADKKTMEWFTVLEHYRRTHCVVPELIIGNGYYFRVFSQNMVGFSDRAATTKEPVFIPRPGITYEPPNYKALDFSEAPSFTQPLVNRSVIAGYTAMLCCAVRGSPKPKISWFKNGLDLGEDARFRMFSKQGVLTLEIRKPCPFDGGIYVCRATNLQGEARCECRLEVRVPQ
row,Variant,effect of a mutation on the interaction
1,E848G,disrupting interaction strength

# Source: IntAct's records for PubMed 30623132
